The values below are quoted from earlier work in publication PMC12687463.

Where two headings read alike, the source gives them in different places.

Data set [1] concerns the target glucokinase regulatory protein (GKRP) (Homo sapiens) (UniProt Q14397).
Data set [2] shares this target. This is another data set of the same source.
The target is the same in data set [3]. This is another data set of the same source.

UniProt Q14397, sequence (Q14397 whole entry): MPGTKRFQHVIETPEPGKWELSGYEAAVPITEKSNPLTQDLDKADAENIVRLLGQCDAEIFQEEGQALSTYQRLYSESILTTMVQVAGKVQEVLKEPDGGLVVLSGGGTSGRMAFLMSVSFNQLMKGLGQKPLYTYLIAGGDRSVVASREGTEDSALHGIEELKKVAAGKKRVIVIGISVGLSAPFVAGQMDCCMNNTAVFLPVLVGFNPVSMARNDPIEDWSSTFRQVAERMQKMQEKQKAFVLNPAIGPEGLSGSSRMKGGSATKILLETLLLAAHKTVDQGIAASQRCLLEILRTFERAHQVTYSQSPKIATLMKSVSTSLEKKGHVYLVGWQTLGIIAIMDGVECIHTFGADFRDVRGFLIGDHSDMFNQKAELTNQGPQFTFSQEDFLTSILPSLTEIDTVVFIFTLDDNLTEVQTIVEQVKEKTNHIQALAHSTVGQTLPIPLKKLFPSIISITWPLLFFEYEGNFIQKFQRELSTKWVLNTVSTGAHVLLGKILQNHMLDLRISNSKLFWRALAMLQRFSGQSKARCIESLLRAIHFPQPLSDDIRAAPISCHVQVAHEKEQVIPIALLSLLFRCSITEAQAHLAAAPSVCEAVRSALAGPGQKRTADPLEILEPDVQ
glucokinase, sequence (P35557 whole entry): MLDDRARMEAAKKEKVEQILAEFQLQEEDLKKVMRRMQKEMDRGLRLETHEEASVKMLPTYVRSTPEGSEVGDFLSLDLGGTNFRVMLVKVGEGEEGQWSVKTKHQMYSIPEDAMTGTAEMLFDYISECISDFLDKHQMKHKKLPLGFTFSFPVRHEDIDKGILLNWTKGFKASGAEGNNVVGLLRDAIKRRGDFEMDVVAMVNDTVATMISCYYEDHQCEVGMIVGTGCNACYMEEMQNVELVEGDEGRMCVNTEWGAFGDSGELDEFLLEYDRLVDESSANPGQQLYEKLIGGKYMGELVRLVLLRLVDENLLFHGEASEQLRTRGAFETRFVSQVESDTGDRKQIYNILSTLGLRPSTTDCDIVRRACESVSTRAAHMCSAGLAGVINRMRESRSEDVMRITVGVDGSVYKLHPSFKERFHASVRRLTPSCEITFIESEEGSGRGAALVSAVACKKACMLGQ

With glucokinase (from UniProt P35557), the Ki (in general, a dissociation constant, usually derived from enzyme kinetics or from competition with a known ligand) in data set [1] was 7000 nM; in data set [2] it was 45 nM; in data set [3], 984 nM.
